Results: patent US20190201496A1 (published 2019)
Where two headings read alike, the source gives them in different places. Blank lines part the entries; values can stand above or below the binder they belong to.

Assays:
Assay in all cases: SPR; pH 6
human β2-microglobulin [1] = biological target: T1, human β2-microglobulin (UniProt P61769 21-119)
HLA-A2:01 = biological target: T2, HLA-A2:01 (human, UniProt A*02:01, biotinylated (site not stated))
T2 chain: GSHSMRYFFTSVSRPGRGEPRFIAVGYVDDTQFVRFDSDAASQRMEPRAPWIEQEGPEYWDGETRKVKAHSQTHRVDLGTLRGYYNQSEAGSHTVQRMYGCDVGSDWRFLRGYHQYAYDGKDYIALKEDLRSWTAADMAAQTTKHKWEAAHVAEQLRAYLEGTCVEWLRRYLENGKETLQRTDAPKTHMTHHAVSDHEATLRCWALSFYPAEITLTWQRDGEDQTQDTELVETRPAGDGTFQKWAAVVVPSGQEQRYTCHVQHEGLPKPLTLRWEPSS

human β2-microglobulin [2] = biological target: T1, human β2-microglobulin; remark: listed apart in the source
mβ2m = biological target: mβ2m

B1: hAFP N-His (protein)
chain: RTLHRNEYGIASILDSYQCTAEISLADLATIFFAQFVQEATYKEVSKMVKDALTAIEKPTGDEQSSGCLENQLPAFLEELCHEKEILEKYGHSDCCSQSEEGRHNCFLAHKKPTPASIPLFQVPEPVTSCEAYEEDRETFMNKFIYEIARRHPFLYAPTILLWAARYDKIIPSCCKAENAVECFQTKAATVTKELRESSLLNQHACAVMKNFGTRTFQAITVTKLSQKFTKVNFTEIQKLVLDVAHVHEHCCRGDVLDCLQDGEKIMSYICSQQDTLSNKITECCKLTTLERGQCIIHAENDEKPEGLSPNLNRFLGDRDFNQFSSGEKNIFLASFVHEYSRRHPQLAVSVILRVAKGYQELLEKCFQTENPLECQDKGEEELQKYIQESQALAKRSCGLFQKLGEYYLQNAFLVAYTKKAPQLTSSELMAITRKMAATAATCCQLSEDKLLACGEGAADIIIGHLCIRHEMTPVNPGVGQCCTSSYANRRPCFSSLVVDETYVPPAFSDDKFIFHKDLCQAQGVALQTMKQEFLINLVKQKPQITEEQLEAVIADFSGLLEKCCQGQEQEVCFAEEGQKLISKTRAALGV
Kd (human β2-microglobulin [1]): 96.9 nM

B2: AFP (ligand)
chain: RTLHRNEYGIASILDSYQCTAEISLADLATIFFAQFVQEATYKEVSKMVKDALTAIEKPTGDEQSSGCLENQLPAFLEELCHEKEILEKYGHSDCCSQSEEGRHNCFLAHKKPTPASIPLFQVPEPVTSCEAYEEDRETFMNKFIYEIARRHPFLYAPTILLWAARYDKIIPSCCKAENAVECFQTKAATVTKELRESSLLNQHACAVMKNFGTRTFQAITVTKLSQKFTKVNFTEIQKLVLDVAHVHEHCCRGDVLDCLQDGEKIMSYICSQQDTLSNKITECCKLTTLERGQCIIHAENDEKPEGLSPNLNRFLGDRDFNQFSSGEKNIFLASFVHEYSRRHPQLAVSVILRVAKGYQELLEKCFQTENPLECQDKGEEELQKYIQESQALAKRSCGLFQKLGEYYLQNAFLVAYTKKAPQLTSSELMAITRKMAATAATCCQLSEDKLLACGEGAADIIIGHLCIRHEMTPVNPGVGQCCTSSYANRRPCFSSLVVDETYVPPAFSDDKFIFHKDLCQAQGVALQTMKQEFLINLVKQKPQITEEQLEAVIADFSGLLEKCCQGQEQEVCFAEEGQKLISKTRAALGV
Kd (HLA-A2:01): 35.9 nM

B5: hAFP cord (ligand)
chain: RTLHRNEYGIASILDSYQCTAEISLADLATIFFAQFVQEATYKEVSKMVKDALTAIEKPTGDEQSSGCLENQLPAFLEELCHEKEILEKYGHSDCCSQSEEGRHNCFLAHKKPTPASIPLFQVPEPVTSCEAYEEDRETFMNKFIYEIARRHPFLYAPTILLWAARYDKIIPSCCKAENAVECFQTKAATVTKELRESSLLNQHACAVMKNFGTRTFQAITVTKLSQKFTKVNFTEIQKLVLDVAHVHEHCCRGDVLDCLQDGEKIMSYICSQQDTLSNKITECCKLTTLERGQCIIHAENDEKPEGLSPNLNRFLGDRDFNQFSSGEKNIFLASFVHEYSRRHPQLAVSVILRVAKGYQELLEKCFQTENPLECQDKGEEELQKYIQESQALAKRSCGLFQKLGEYYLQNAFLVAYTKKAPQLTSSELMAITRKMAATAATCCQLSEDKLLACGEGAADIIIGHLCIRHEMTPVNPGVGQCCTSSYANRRPCFSSLVVDETYVPPAFSDDKFIFHKDLCQAQGVALQTMKQEFLINLVKQKPQITEEQLEAVIADFSGLLEKCCQGQEQEVCFAEEGQKLISKTRAALGV
Kd (mβ2m): 167 nM

Further lines, results first:

Kd (human β2-microglobulin [2]): 125 nM
B3: human alpha-fetoprotein (AFP) (ligand)
chain: RTLHRNEYGIASILDSYQCTAEISLADLATIFFAQFVQEATYKEVSKMVKDALTAIEKPTGDEQSSGCLENQLPAFLEELCHEKEILEKYGHSDCCSQSEEGRHNCFLAHKKPTPASIPLFQVPEPVTSCEAYEEDRETFMNKFIYEIARRHPFLYAPTILLWAARYDKIIPSCCKAENAVECFQTKAATVTKELRESSLLNQHACAVMKNFGTRTFQAITVTKLSQKFTKVNFTEIQKLVLDVAHVHEHCCRGDVLDCLQDGEKIMSYICSQQDTLSNKITECCKLTTLERGQCIIHAENDEKPEGLSPNLNRFLGDRDFNQFSSGEKNIFLASFVHEYSRRHPQLAVSVILRVAKGYQELLEKCFQTENPLECQDKGEEELQKYIQESQALAKRSCGLFQKLGEYYLQNAFLVAYTKKAPQLTSSELMAITRKMAATAATCCQLSEDKLLACGEGAADIIIGHLCIRHEMTPVNPGVGQCCTSSYANRRPCFSSLVVDETYVPPAFSDDKFIFHKDLCQAQGVALQTMKQEFLINLVKQKPQITEEQLEAVIADFSGLLEKCCQGQEQEVCFAEEGQKLISKTRAALGV

Kd (human β2-microglobulin [1]): 193 nM
B4: human AFP derived from cord blood (ligand)
chain: RTLHRNEYGIASILDSYQCTAEISLADLATIFFAQFVQEATYKEVSKMVKDALTAIEKPTGDEQSSGCLENQLPAFLEELCHEKEILEKYGHSDCCSQSEEGRHNCFLAHKKPTPASIPLFQVPEPVTSCEAYEEDRETFMNKFIYEIARRHPFLYAPTILLWAARYDKIIPSCCKAENAVECFQTKAATVTKELRESSLLNQHACAVMKNFGTRTFQAITVTKLSQKFTKVNFTEIQKLVLDVAHVHEHCCRGDVLDCLQDGEKIMSYICSQQDTLSNKITECCKLTTLERGQCIIHAENDEKPEGLSPNLNRFLGDRDFNQFSSGEKNIFLASFVHEYSRRHPQLAVSVILRVAKGYQELLEKCFQTENPLECQDKGEEELQKYIQESQALAKRSCGLFQKLGEYYLQNAFLVAYTKKAPQLTSSELMAITRKMAATAATCCQLSEDKLLACGEGAADIIIGHLCIRHEMTPVNPGVGQCCTSSYANRRPCFSSLVVDETYVPPAFSDDKFIFHKDLCQAQGVALQTMKQEFLINLVKQKPQITEEQLEAVIADFSGLLEKCCQGQEQEVCFAEEGQKLISKTRAALGV
